What was measured:
[1] = target: SARS-CoV preparation (Frankfurt 1 strain); test: phage ELISA on coated SARS-CoV preparation, plate 3 (no phage antibody 0.054)
[2] = target: SARS-CoV preparation (Frankfurt 1 strain); test: phage ELISA on coated SARS-CoV preparation, plate 2 (no phage antibody 0.211)
[3] = target: SARS-CoV preparation (Frankfurt 1 strain); test: phage ELISA on coated SARS-CoV preparation, plate 4 (no phage antibody 0.051)

B1: SC03-051 (scFv)
scFv: AMAQVQLVQSGTEVKKPGESLKISCKGSGYGFITYWIGWVRQMPGKGLEWMGIIYPGDSETRYSPSFQGQVTISADKSINTAYLQWSSLKASDTAIYYCAGGSGISTPMDVWGQGTTVTVSSGTGGSGGTGSGTGGSTDIQMTQSPDSLAVSLGERATINCKSGQSILYSSNDKNYLAWYQQKPGQPPKLLIYWASTRESGVPDRFSGSGSGTDFTLTISSLQAEDVAVYYCQQYYSTPYTFGQGTKVEIKRAA
Question: For B1, which OD492 nm [1] is on record?
Answer: 0.602 OD492 nm

B2: SC03-021 (scFv)
scFv: AMAQVQLVQSGTEVKKPGESLKISCKGSGYGFITYWIGWVRQMPGKGLEWMGIIYPGDSETRYSPSFQGQVTISADKSINTAYLQWSSLKASDTAIYYCAGGSGISTPMDVWGQGTTVTVSSGTGGSGGTGSGTGGSTDVVMTQSPDSLAVSLGERATINCKSSQSVLHSSNNKNYLAWYQQKPGQPPKLLIYWASTRQSGVPDRFSGSGSGTDFTLTISSLQAEDVAVYYCQQYYSTPPTFGQGTKVEIKRAA
Question: Which OD492 nm [2] does the source give for B2 here?
Answer: 0.215 OD492 nm

B3: SC03-020 (scFv)
scFv: AMAEVQLVQSGSEVKKPGESLKISCKGSGYGFITYWIGWVRQMPGKGLEWMGIIYPGDSETRYSPSFQGQVTISADKSINTAYLQWSSLKASDTAIYYCAGGSGISTPMDVWGQGTTVTVSSGTGGSGGTGSGTGGSTDIQMTQSPDSLAVSLGERATINCKSSQKILHSSNNKNYLAWYQQKPGQPPKLLIYWASTRESGVPDRFSGSGSGTDFTLTISSLQAEDVAVYYCQQYYSTPPVFGGGTKVEIKRAA
Question: With B3 as the binder, how does the OD492 nm [2] read?
Answer: 0.671 OD492 nm

B4: SC03-055 (scFv)
scFv: AMAQVQLQQWGAGLLKPSETLSLTCAVYGGSFSGFYWSWIRQPPGKGLEWIGEINHSGSTNYNPSLKSRVTISADTSKNQFSLKLSSVTAADTAVYYCARRVEVVEYQLLRPRYKSWFDPWGQGTLVTVSSGTGGSGGTGSGTGGSTQSVLTQPPSVSGAPGQRVSISCSGSGANGGTDPVSWYQKFPGTAPHLLIYDNNKRPSGIPDRFSGSKSGASATLDITGLQTGDEADYYCGAWDPSLSGYVFGTGTQLTVLSAA
Question: B4 was tested. Which OD492 nm [1] did it give?
Answer: 0.608 OD492 nm

B5: SC03-046 (scFv)
scFv: AMAEVQLVQSGGGLVQPGGSLRLSCAASGFTFSSYAMHWVRQAPGKGLEYVSGISSNGGSTYYANSVKGRFTISRDNSKNTLYLQMGSLRAEDMAVYYCARTTNRAFDIWGQGTMVTVSSGTGGSGGTGSGTGGSTDVVMTQSPDSLAVSLGERATINCKSSQSVLYSSNNKNYLAWYQQKPGQPPKLLIYWASTRESGVPDRFSGSGSGTDFSLTISSLQAEDVAVYYCQQYYSPPYTFGPGTKVEIKRAA
Question: How did the OD492 nm [1] turn out when B5 was run?
Answer: 1.9 OD492 nm

B6: SC03-040 (scFv)
scFv: AMAQVQLVQSGGGLVQPGGSLRLSCAASGFTFSSYAMHWVRQAPGKGLEYVSGISSNGGSTYYANSVKGRFTISRDNSKNTLYLQMGSLRAEDMAVYYCARTTNRAFDIWGQGTMVTVSSGTGGSGGTGSGTGGSTDIQMTQSPDSLAVSLGERATINCRSSQSVLYSSNNKNYLAWYQQKPGQPPKLLIYWASTRESGVPDRFSGSGSGTDFTLTISSLQAEDVAVYYCQQYYSSPYSFGQGTKLEIKRAA
Question: With B6 as the binder, how does the OD492 nm [3] read?
Answer: 0.616 OD492 nm

B7: SC03-054 (scFv)
scFv: AMAEVQLVQSGGGVVQPGRSLRLSCAASGFTFSSYAMHWVRQAPGKGLEYVSGISSNGGSTYYANSVKGRFTISRDNSKNTLYLQMGSLRAEDMAVYYCARTTNRAFDIWGQGTMVTVSSGTGGSGGTGSGTGGSTDIQLTQSPDSLAVSLGERATINCKSSQSVLYSSNNKNYLAWYQQKPGQPPKLLIYWASTRESGVPDRFSGGGSGTDFTLTISSLQAEDVAVYYCQQYYSTPYSFGQGTKVEIKRAA
Question: Which OD492 nm [3] does the source give for B7 here?
Answer: 0.428 OD492 nm

B8: SC03-031 (scFv)
scFv: AMAQVQLVQSGADVKKPGSSVKVSCEASGGTFSSYAISWVRQAPGQGLEWMGRIIPILGITNYAQKFQGRVTITADKSTGTGNMELSSLRSEDTAVYYCARESGGGYDNHFDYWGQGTLVTVSSGTGGSGGTGSGTGGSTQSVLTQPPSASGTPGQRVTISCSGGSSNIGSNTVNWYQQLPGTAPKLVIYANNQRPSGVPDRFSASKSGTSASLAISGLQSEDEADYYCAAWDDSLTGGVFGGGTQLTVLSAA
Question: Which OD492 nm [3] does the source give for B8 here?
Answer: 0.635 OD492 nm

B9: SC03-037 (scFv)
scFv: AMAKVQLVQSGGGLIQPGGSLRLSCAASGFTVSSNYMSWVRQAPGKGLEWVSIVFSGGSTYYADSVKGRFTISRDNSKNTLYLQMNSLRAEDTAVYYCARDAHRGFGMDVWGQGTTVTVSSGTGGSGGTGSGTGGSTSSELTQDPAVSVALGQTVRITCQGDSLRSYYASWYQQKPGQAPVLVIYGKNNRPSGIPDRFSGSSSGNTASLTITGAQAEDEADYYCNGRDSSGNHWVFGGGTKLTVLGAA
Question: For B9, which OD492 nm [3] is on record?
Answer: 0.287 OD492 nm

B10: SC03-038 (scFv)
scFv: AMAEVQLVQSGGGLIQPGGSLRLSCAASGFTVSSNYMSWVRQAPGKGLEWVSIVFSGGSTYYADSVKGRFTISRDNSKNTLYLQMNSLRAEDTAVYYCARDAHRGFGMDVWGQGTTVTVSSGTGGSGGTGSGTGGSTSSELTQDPAVSVALGQTVRITCQGDSLRSYYASWYQQKPGQAPVLVIYGKNNRPSGIPDRFSGSSSGDTASLTITGAQAEDEADYYCNSRDSSGNHWVFGGGTKLTVLGAA
Question: Which OD492 nm [3] does the source give for B10 here?
Answer: 0.314 OD492 nm

B11: SC03-025 (scFv)
scFv: AMAEVQLVESGGGLVQPGGSLRLSCAASGFTFSSYAMHWVRQAPGKGLEYVSGISSNGGSTYYANSVKGRFTISRDNSKNTLYLQMGSLRAEDMAVYYCARTTNRAFDIWGQGTMVTVSSGTGGSGGTGSGTGGSTDIQLTQSPDSLAVSLGERATINCKSSQSVLYSSNNKNYLAWYQQKPGQPPKLLIYWASIRESGVPDRFSGSGSGTDFTLTISSLQAEDVAVYYCQQYYNIPYAFGQGTKLEIKRAA
Question: For B11, which OD492 nm [2] is on record?
Answer: 1.64 OD492 nm

B12: SC03-043 (scFv)
scFv: AMAQVQLVQSGGGLVQPGGSLRLSCAASGFTFSSYAMHWVRQAPGKGLEYVSGISSNGGSTYYANSVKGRFTISRDNSKNTLYLQMGSLRAEDMAVYYCARTTNRAFDIWGQGTMVTVSSGTGGSGGTGSGTGGSTDIQLTQSPDSLAVSLGERATINCKSSQSVLYRSNNKNYLAWYQQKPGQPPKLLIYWASTRESGVSERFSGSGSGTDFTLTISSLQAEDVAVYYCQQYYSTPYSFGQGTKLEIKRAA
Question: With B12 as the binder, how does the OD492 nm [1] read?
Answer: 1.27 OD492 nm

B13: SC03-044 (scFv)
scFv: AMAEVQLVETGGGLVQPGGSLRLSCAASGFTFSSYAMHWVRQAPGKGLEYVSGISSNGGSTYYANSVKGRFTISRDNSKNTLYLQMGSLRAEDMAVYYCARTTNRAFDIWGQGTMVTVSSGTGGSGGTGSGTGGSTDIQMTQSPDSLAVSLGERATINCKSSQSVLYSSNNKNYLAWYQQKPGQPPKLLIYWASTRESGVPDRFRGSGSGTDFTLTISSLQAEDLAVYYCQQYYSTPYSFGQGTKLEIKRAA
Question: With B13 as the binder, how does the OD492 nm [3] read?
Answer: 0.518 OD492 nm

B14: SC03-039 (scFv)
scFv: AMAEVQLVESGGGLVQPGGSLRLSCAASGFTFSSYAMSWVRQAPGKGLEWVSVIYSGGTSTYYADSVKGRFTISRDNSKNTLYLQMNSLRAEDTAVYFCAKGSKWNDVGGGDYWGQGTLVTVSSGTGGSGGTGSGTGGSTNFMLTQPHSVSESPGKTVTISCAGSSGSIASNYVQWYQQRPGSAPTTVIYEDNQRPSGVPDRFSGSIDSSSNSASLTISGLKTEDEADYYCQSYDGYLWIFGGGTKLTVLGAA
Question: Which OD492 nm [1] does the source give for B14 here?
Answer: 0.851 OD492 nm

B15: SC03-034 (scFv)
scFv: AMAEVQLVQSGAEVKKPGESLKISCKGSGYGFITYWIGWVRQMPGKGLEWMGIIYPGDSETRYSPSFQGQVTISADKSINTAYLQWSSLKASDTAIYYCAGGSGISTPMDVWGQGTTVTVSSGTGGSGGTGSGTGGSTDVVMTQSPDSLAVSLGERATINCKSSQSILNRSNNKNYLAWYQQKPGQPPKLLIYWASTRESGVPDRFSGSGSGTDFNLTISSLQAEDVAVYYCQQYNNWPLTFGGGTKVDIKRAA
Question: B15 was tested. Which OD492 nm [1] did it give?
Answer: 0.802 OD492 nm

B16: SC03-023 (scFv)
scFv: AMAQVQLQQWGAGLLKPSETLSLTCAVYGGSFSGFYWSWIRQPPGKGLEWIGEINHSGSTNYNPSLKSRVTISVDTSKNQFSLKLSSVTAADTAVYYCARRVEVVEYQLLRPRYKSWFDPWGQGTLVTVSSGTGGSGGTGSGTGGSTQSALTQPRSVSGSPGQSVTISCTGSSSTVGGYNYVSWYQQHPGKAPKLMIYDVSKRPSGVSNRFSGSKSGNTASLTISGLQAEDEADYYCSSYTSSSTYVFGTGTKVTVLGAA
Question: Which OD492 nm [2] does the source give for B16 here?
Answer: 1.31 OD492 nm

B17: SC03-024 (scFv)
scFv: AMAQVQLVESGSELKIPGASVKVSCKATGYTFTRYSLNWVRQAPGQGLEWVGWINTQTGNSNYGQAFSGRFVFSLDTSVSTAYLQISSLQAEDTATYYCARKSAGSNAFDIWGQGTMVTVSSGTGGSGGTGSGTGGSTQSVVTQPPSVSAAPGQKATISCSGSSSNIGNNYVSWYQQLPGTAPKLLIYDNNKRPSGIPNRFSGSKSGTSATLGITGLQTGDEADYYCGTWDSSLSAYVFGTGTKVTVLGAA
Question: For B17, which OD492 nm [2] is on record?
Answer: 0.235 OD492 nm

B18: SC03-057 (scFv)
scFv: AMAQVQLVQSGAEVKKPGSSVKVSCKASGGTFSRYAISWVRQAPGQGLEWMGRINPILNLTNYAQKFQGRVTITADKSTSTAYMEMSSLRSEDTAIYYCASPDIVVAGHASPPHYTMDVWGQGTTVTVSSGTGGSGGTGSGTGGSTDIQMTQSPSSLSASVGDRVTITCRASQGIRNDLGWYQQKPGKAPNLLIYQASALQSGVPSRFSGSESGAEFTLTISSLHPDDFATYYCQQYHDFPITFGQGTRLEIKRAA
Question: Which OD492 nm [1] does the source give for B18 here?
Answer: 1.19 OD492 nm

B19: SC03-033 (scFv)
scFv: AMAQVQLVQSGTEVKKPGESLKISCKGSGYGFITYWIGWVRQMPGKGLEWMGIIYPGDSETRYSPSFQGQVTISADKSINTAYLQWSSLKASDTAIYYCAGGSGISTPMDVWGQGTTVTVSSGTGGSGGTGSGTGGSTDVVMTQSPDSLAVSLGERATINCKTSHNIFSRSNNKDYLAWYQQKPGQPPRLLIYWASTRASGVPERFSGSGSGTDFSLTISSLQAEDVAVYYCQQYYSSPMYSFGQGTKVEIKRAA
Question: For B19, which OD492 nm [3] is on record?
Answer: 0.288 OD492 nm

B20: SC03-036 (scFv)
scFv: AMAEVQLVQSGTEVKKPGESLKISCKGSGYGFITYWIGWVRQMPGKGLEWMGIIYPGDSETRYSPSFQGQVTISADKSINTAYLQWSSLKASDTAIYYCAGGSGISTPMDVWGQGTTVTVSSGTGGSGGTGSGTGGSTDIQMTQSPDSLAVSLGERATINCKSSQSVLHSPNNKNYLAWYQQKPGQPPKLLIYWASTRESGVPDRFSGSGSGTDFTLTISSLQAEDVAVYYCQQYYSTNSFGQGTKLEIKRAA
Question: For B20, which OD492 nm [1] is on record?
Answer: 0.24 OD492 nm
